Experimental findings from publication PMC10804666 are described below.

The target in assay [1] is Biotinylated recombinant mouse serum albumin (Mus musculus) (UniProt P07724). Kind of assay: flow cytometry on cells; yeast surface titration at pH 7.4: NbAlb1 displayed on yeast (2 x 10^5 cells per well), ten concentrations of soluble biotinylated SA from 30 pM to 1 μM, 1 h at 4°C, PBS pH 7.4 with 0.01% w/v casein, NeutrAvidin DyLight 650, MFI; three independent experiments.

Assay [2] deals with Biotinylated human serum albumin (Homo sapiens) (UniProt P02768). The description is as above.

As for “NbAlb1 displayed on the surface of yeast as NbAlb1-(G4S)3-HA-pStalk fusion protein (VHH)”, the figures for the Kd in assay [1] and in assay [2] were 54.5 nM and 6.6 nM, respectively.
